{
  "source": "paper PMC9603474",
  "about": "“Genome-Wide Identification of DOF Gene Family and the Mechanism Dissection of SbDof21 Regulating Starch Biosynthesis in Sorghum”",
  "binders": {"B1": {"name": "4x P-Box (dsDNA)", "DNA 1": "TGTAAAGTGTAAAGTGTAAAGTGTAAAG", "DNA 2": "CTTTACACTTTACACTTTACACTTTACA"}},
  "target": "T1, SbDOF21 (Sorghum bicolor cv. BTx623, UniProt C5Y2M8 1-340)",
  "T1 sequence": "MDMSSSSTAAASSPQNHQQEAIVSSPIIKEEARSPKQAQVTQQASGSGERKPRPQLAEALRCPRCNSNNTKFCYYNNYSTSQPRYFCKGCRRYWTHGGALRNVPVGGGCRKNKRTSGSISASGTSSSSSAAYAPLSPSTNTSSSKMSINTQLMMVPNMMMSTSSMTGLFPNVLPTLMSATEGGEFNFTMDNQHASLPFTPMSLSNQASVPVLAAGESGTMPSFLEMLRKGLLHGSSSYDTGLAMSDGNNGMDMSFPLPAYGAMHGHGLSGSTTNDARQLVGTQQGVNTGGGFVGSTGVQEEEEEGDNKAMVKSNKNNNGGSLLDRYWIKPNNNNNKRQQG",
  "assay": "EMSA; 20-fold unlabeled probe partly reduced the shift; Chemiluminescent EMSA Kit (Beyotime) per instructions; buffer, salt, pH and temperature not stated",
  "conditions": "protein: recombinant; tags: His (pET32a, N-terminal vector fusion); blunt",
  "data": [
    {"binder": "B1", "values": [
      {"measurement": "binding result", "result": "binds"}
    ]}
  ]
}
